One test has as its target T1, G9a and GLP (Homo sapiens, UniProt Q96KQ7+Q9H9B1).
T1 construct: endogenous in cells; host or cells: HEK 293T
T1 sequence (Q96KQ7 2-1210 limits assumed): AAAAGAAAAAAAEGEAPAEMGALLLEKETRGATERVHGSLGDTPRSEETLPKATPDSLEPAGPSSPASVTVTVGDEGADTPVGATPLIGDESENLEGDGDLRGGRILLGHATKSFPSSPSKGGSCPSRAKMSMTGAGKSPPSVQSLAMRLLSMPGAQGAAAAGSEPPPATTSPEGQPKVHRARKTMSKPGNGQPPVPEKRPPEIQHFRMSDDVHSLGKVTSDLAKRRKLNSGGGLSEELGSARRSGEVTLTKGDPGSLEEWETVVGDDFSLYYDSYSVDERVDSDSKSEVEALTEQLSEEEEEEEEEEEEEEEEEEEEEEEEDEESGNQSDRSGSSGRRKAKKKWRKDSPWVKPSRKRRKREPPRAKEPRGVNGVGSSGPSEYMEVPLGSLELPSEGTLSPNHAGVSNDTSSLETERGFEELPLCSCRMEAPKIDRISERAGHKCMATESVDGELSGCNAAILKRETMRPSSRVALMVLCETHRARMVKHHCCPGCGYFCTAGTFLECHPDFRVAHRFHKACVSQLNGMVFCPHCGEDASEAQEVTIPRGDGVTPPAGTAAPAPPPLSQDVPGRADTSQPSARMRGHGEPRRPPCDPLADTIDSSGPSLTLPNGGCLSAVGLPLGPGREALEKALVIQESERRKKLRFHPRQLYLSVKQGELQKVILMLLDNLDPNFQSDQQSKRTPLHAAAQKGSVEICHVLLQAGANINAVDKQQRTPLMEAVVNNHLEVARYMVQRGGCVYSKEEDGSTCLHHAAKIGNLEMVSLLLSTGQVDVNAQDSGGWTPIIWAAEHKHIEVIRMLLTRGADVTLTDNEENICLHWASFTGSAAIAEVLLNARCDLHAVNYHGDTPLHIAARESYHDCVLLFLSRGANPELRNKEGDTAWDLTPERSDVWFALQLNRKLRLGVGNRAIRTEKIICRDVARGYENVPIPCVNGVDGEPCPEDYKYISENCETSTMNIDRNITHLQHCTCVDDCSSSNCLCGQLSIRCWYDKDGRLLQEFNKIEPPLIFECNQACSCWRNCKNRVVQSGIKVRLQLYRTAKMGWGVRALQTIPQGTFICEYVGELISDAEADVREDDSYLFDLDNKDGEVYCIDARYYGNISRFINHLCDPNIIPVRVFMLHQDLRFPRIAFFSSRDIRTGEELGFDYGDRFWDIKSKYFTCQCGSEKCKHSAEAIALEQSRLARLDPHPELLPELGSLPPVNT
T1 sequence (Q9H9B1 2-1298 limits assumed): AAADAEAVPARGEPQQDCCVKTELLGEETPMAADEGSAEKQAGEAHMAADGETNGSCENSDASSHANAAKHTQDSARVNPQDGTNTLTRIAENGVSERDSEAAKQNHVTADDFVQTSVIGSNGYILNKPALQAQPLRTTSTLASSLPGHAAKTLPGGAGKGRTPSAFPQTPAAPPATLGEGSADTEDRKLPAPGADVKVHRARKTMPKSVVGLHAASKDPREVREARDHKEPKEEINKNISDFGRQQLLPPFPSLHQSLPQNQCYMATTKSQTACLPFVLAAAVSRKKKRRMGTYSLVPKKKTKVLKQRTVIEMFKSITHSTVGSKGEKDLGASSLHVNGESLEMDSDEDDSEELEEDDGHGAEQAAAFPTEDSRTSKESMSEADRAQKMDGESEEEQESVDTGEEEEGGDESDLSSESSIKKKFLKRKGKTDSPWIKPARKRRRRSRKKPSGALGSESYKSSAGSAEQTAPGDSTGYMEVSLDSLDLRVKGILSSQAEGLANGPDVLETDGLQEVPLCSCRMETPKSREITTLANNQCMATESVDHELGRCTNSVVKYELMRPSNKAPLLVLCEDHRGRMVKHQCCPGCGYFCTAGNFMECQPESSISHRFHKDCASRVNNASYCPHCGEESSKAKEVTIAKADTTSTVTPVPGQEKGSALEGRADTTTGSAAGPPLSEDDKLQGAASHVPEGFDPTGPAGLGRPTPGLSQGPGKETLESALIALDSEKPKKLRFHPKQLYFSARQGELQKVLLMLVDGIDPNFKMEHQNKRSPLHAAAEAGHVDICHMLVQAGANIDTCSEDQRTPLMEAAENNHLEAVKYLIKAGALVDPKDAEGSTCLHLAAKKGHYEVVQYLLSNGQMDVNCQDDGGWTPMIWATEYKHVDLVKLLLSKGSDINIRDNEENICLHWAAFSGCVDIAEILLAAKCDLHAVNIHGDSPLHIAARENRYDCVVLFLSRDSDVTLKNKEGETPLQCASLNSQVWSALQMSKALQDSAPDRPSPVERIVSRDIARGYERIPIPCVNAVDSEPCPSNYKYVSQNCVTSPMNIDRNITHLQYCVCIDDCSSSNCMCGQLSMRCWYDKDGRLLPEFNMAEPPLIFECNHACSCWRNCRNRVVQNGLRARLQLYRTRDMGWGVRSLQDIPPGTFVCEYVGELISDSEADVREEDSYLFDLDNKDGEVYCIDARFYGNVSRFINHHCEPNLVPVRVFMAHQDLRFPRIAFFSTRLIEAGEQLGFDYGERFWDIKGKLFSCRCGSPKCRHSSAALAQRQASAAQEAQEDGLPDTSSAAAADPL
Description: Triple SILAC pull-down after UNC0638 treatment of 293T cells, DMSO/UNC0638 ratio of protein captured by 3×MBT.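 As to all read-outs here: mass spectrometry (Q-Exactive) SILAC quantitation, DMSO/UNC0638 ratio computed after subtracting 3×MBTD355N mutant pull-down background, only proteins with at least twofold 3×MBT over mutant signal considered.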 The class given is cell-based. The conditions noted are these: for Relative to UNC0638 UNC Heavy: UNC0638 in heavy SILAC media; for Relative to UNC0638 UNC Light: UNC0638 in light SILAC media; for Relative to UNC0638 Average: average of UNC Light and UNC Heavy experiments.

In another test the test system is 3×MBT domain of L3MBTL1. Description: Triple SILAC pull-down, 3xMBT/3xMBTD355N ratio (cytoplasmic, nuclear and chromatin fractions of 293T cells).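 As to all read-outs here: proteins quantified with MaxQuant, requiring at least two unique peptides and quantification in both label directions, normalized to the mean of proteins from a digested loading control.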 The class given is binding, human. The settings on record: for 3xMBT/D355N UNC Heavy: experiment with UNC0638 in heavy SILAC media; for 3xMBT/D355N UNC Light: experiment with UNC0638 in light SILAC media.
Where [1] appears, read: SILAC ratio DMSO relative to UNC0638, pull-down with 3xMBT, all values in log base 2.
Setting [2] is: SILAC ratio 3xMBT vs 3xMBTD355N pull-down, 293T cells, all values in log base 2.
Setting [3] is: SILAC ratio DMSO/UNC0638 of protein pulled down with 3xMBT.
The mark [4] stands for this setting: SILAC ratio, pull-down 3xMBT vs 3xMBTD355N.

Consider STRAP, for which, in the test with G9a and GLP (setting [1]), the “Relative to UNC0638 UNC Heavy” value is 0.24 log base 2 and the “Relative to UNC0638 UNC Light” value is on record as −0.15 log base 2. Also, in the test with G9a and GLP (all values in log base 2), the “Relative to UNC0638 Average” value was found to be 0.05 log base 2. For the same substance, in the test on 3×MBT domain of L3MBTL1 (setting [2]), the “3xMBT/D355N UNC Heavy” value was found to be 1.61 log base 2 and the “3xMBT/D355N UNC Light” value is on record as 1.80 log base 2.

Regarding SUPT16H, in the test with G9a and GLP (setting [3]), the “Relative to UNC0638 UNC Heavy” value worked out at 0.04 log base 2 and the “Relative to UNC0638 UNC Light” value came to 0.23 log base 2. Further, the “Relative to UNC0638 Average” value with G9a and GLP worked out at 0.13 log base 2. Further, in the test with 3×MBT domain of L3MBTL1 (setting [4]), the “3xMBT/D355N UNC Heavy” value is listed as 3.66 log base 2 and the “3xMBT/D355N UNC Light” value was determined as 4.01 log base 2.

For the substance “SWI/SNF-related matrix-associated actin-dependent regulator of chromatin subfamily A member 5”, the “Protein Ratios DMSO/UNC0638” value on G9a and GLP (SILAC ratio of protein captured by 3xMBT, 293T cells treated 24 hours with UNC0638 at 2.5 μM or DMSO) was 1.3. Besides, the “Protein Ratios 3xMBT/D355N” value in the test on 3×MBT domain of L3MBTL1 (SILAC ratio, pull-down by 3xMBT vs 3xMBTD355N, 293T cells) is 5.8.

For the substance TARDBP, in the test with G9a and GLP (setting [3]), the “Relative to UNC0638 UNC Heavy” value is 0.18 log base 2 and the “Relative to UNC0638 UNC Light” value is 0.21 log base 2. In the test with G9a and GLP, the “Relative to UNC0638 Average” value was 0.20 log base 2. For the same substance, in the test with 3×MBT domain of L3MBTL1 (setting [4]), the “3xMBT/D355N UNC Heavy” value is 2.44 log base 2 and the “3xMBT/D355N UNC Light” value is on record as 2.40 log base 2.

As for TFG, in the test with G9a and GLP (setting [3]), the “Relative to UNC0638 UNC Heavy” value is 0.16 log base 2 and the “Relative to UNC0638 UNC Light” value came out at 0.22 log base 2. Further, the “Relative to UNC0638 Average” value in the test with G9a and GLP amounted to 0.19 log base 2. In the test with 3×MBT domain of L3MBTL1 (setting [4]), the “3xMBT/D355N UNC Heavy” value is 4.21 log base 2 and the “3xMBT/D355N UNC Light” value turned out to be 4.03 log base 2.

With THOC2, in the test with G9a and GLP (setting [3]), the “Relative to UNC0638 UNC Heavy” value was determined as 0.64 log base 2 and the “Relative to UNC0638 UNC Light” value was −0.05 log base 2. Besides, the “Relative to UNC0638 Average” value with G9a and GLP worked out at 0.30 log base 2. In addition, in the test on 3×MBT domain of L3MBTL1 (setting [4]), the “3xMBT/D355N UNC Heavy” value came out at 2.50 log base 2 and the “3xMBT/D355N UNC Light” value is given as 2.01 log base 2.

In the case of TOP2A, in the test with G9a and GLP (setting [3]), the “Relative to UNC0638 UNC Heavy” value is given as 0.42 log base 2 and the “Relative to UNC0638 UNC Light” value was −0.18 log base 2. Further, the “Relative to UNC0638 Average” value in the test with G9a and GLP was 0.12 log base 2. Also, in the test on 3×MBT domain of L3MBTL1 (setting [4]), the “3xMBT/D355N UNC Heavy” value is 2.56 log base 2 and the “3xMBT/D355N UNC Light” value was 2.96 log base 2.

Take TOP2B: in the test with G9a and GLP (setting [3]), the “Relative to UNC0638 UNC Heavy” value is 0.21 log base 2 and the “Relative to UNC0638 UNC Light” value was 0.21 log base 2. Besides, the “Relative to UNC0638 Average” value with G9a and GLP is reported as 0.21 log base 2. Moreover, in the test on 3×MBT domain of L3MBTL1 (setting [4]), the “3xMBT/D355N UNC Heavy” value turned out to be 1.61 log base 2 and the “3xMBT/D355N UNC Light” value came to 2.04 log base 2.

On to TRIM25, for which, in the test with G9a and GLP (setting [3]), the “Relative to UNC0638 UNC Heavy” value is given as 0.05 log base 2 and the “Relative to UNC0638 UNC Light” value was found to be 0.46 log base 2. The “Relative to UNC0638 Average” value with G9a and GLP was 0.25 log base 2. In addition, in the test on 3×MBT domain of L3MBTL1 (setting [4]), the “3xMBT/D355N UNC Heavy” value is on record as 1.88 log base 2 and the “3xMBT/D355N UNC Light” value was found to be 0.76 log base 2.

TRIP12: in the test with G9a and GLP (setting [3]), the “Relative to UNC0638 UNC Heavy” value was found to be 0.46 log base 2 and the “Relative to UNC0638 UNC Light” value is −0.24 log base 2. Besides, the “Relative to UNC0638 Average” value with G9a and GLP is given as 0.11 log base 2. In addition, in the test on 3×MBT domain of L3MBTL1 (setting [4]), the “3xMBT/D355N UNC Heavy” value is listed as 0.66 log base 2 and the “3xMBT/D355N UNC Light” value is 1.34 log base 2.

Take TUBB: in the test with G9a and GLP (setting [3]), the “Relative to UNC0638 UNC Heavy” value is 0.31 log base 2 and the “Relative to UNC0638 UNC Light” value amounted to 0.14 log base 2. In addition, the “Relative to UNC0638 Average” value in the test with G9a and GLP came to 0.22 log base 2. In the test on 3×MBT domain of L3MBTL1 (setting [4]), the “3xMBT/D355N UNC Heavy” value worked out at 1.16 log base 2 and the “3xMBT/D355N UNC Light” value worked out at 1.42 log base 2.

As for TUBB4B, in the test with G9a and GLP (setting [3]), the “Relative to UNC0638 UNC Heavy” value was 0.42 log base 2 and the “Relative to UNC0638 UNC Light” value amounted to 0.03 log base 2. For the same substance, the “Relative to UNC0638 Average” value in the test with G9a and GLP is reported as 0.23 log base 2. In addition, in the test with 3×MBT domain of L3MBTL1 (setting [4]), the “3xMBT/D355N UNC Heavy” value came out at 1.05 log base 2 and the “3xMBT/D355N UNC Light” value is reported as 1.75 log base 2.

On to UHRF1, for which, in the test with G9a and GLP (setting [1]), the “Relative to UNC0638 UNC Heavy” value amounted to 0.54 log base 2 and the “Relative to UNC0638 UNC Light” value is recorded as −0.45 log base 2. Further, the “Relative to UNC0638 Average” value in the test with G9a and GLP (all values in log base 2) is 0.04 log base 2. In the test with 3×MBT domain of L3MBTL1 (setting [2]), the “3xMBT/D355N UNC Heavy” value was 3.68 log base 2 and the “3xMBT/D355N UNC Light” value is on record as 2.24 log base 2.
